Measurements: publication PMC4086270

Assays:
[1] = molecular target: PP2A (total PP2A, detected with an anti-PP2A C subunit antibody) (mouse (endogenous in adult mouse brain slices)) (UniProt P63330)
[2] = molecular target: PP2A (total PP2A, detected with an anti-PP2A C subunit antibody) (mouse (endogenous in adult mouse brain slices)) (UniProt P63330); remark: listed apart in the source
[3] = molecular target: endogenous SET (mouse (endogenous in adult mouse brain slices)) (UniProt Q9EQU5); test: co-IP; lysates of adult mouse brain slices incubated 5 h 30 min with or without recombinant SET (4 μM); IP with polyclonal anti-SET (recognises endogenous and recombinant SET) and protein A Sepharose, overnight 4°C; Hepes 10 mM, NaCl 150 mM, CaCl2 2 mM, Triton X-100 1% pH 7.4; blot for total PP2A C subunit, then methyl-PP2A after stripping
Sequence of UniProt Q9EQU5 (Q9EQU5 whole entry): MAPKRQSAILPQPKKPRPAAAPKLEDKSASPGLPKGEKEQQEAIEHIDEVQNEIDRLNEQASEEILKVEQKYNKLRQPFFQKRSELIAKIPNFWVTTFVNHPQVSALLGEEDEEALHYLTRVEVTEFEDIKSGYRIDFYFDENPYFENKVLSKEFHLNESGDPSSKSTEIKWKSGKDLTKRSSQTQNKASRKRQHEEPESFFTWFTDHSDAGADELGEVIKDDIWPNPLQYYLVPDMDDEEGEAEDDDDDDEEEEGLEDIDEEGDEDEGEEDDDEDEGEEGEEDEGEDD

Sequence of UniProt P63330 (P63330 whole entry): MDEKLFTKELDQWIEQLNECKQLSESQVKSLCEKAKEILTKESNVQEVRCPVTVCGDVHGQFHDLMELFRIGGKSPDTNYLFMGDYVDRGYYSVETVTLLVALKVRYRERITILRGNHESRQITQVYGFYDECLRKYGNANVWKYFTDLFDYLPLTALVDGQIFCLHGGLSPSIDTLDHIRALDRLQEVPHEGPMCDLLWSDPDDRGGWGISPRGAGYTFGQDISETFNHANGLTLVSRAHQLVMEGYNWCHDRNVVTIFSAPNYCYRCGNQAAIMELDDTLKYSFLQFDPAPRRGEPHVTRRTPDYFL

PP2A activity (release of p-nitrophenol) on PP2A immunoprecipitated from brain slices containing internalized recombinant SET, percent of control [1] | ratio of methyl-PP2A to total PP2A by western blotting of brain slice lysates after 5 h 30 min of recombinant SET internalization, percent of the control ratio (% of control ratio) [2] | ratio of methyl-PP2A to total PP2A co-immunoprecipitated with SET [3] | Substance
84 % of control | 83.6 | – | recombinant HA-tagged SET protein fused to the Penetratin vector (from UniProt Q01105 1-290) (natural protein)
– | – | 2.18 | methylated PP2A (from UniProt P63330 1-309) (enzyme)
